Substrate in this data set: O=Cc1cccc(C(=O)O)c1
Put plainly: initial-rate kinetics by RP-HPLC, Michaelis-Menten fit. Format: biochemical, Escherichia coli. The conditions noted are these: TK-3, acceptor substrate varied, 50 mM pyruvate as donor, 2.4 mM ThDP, 9 mM MgCl2, 50 mM Tris-HCl pH 7.0, 21 °C, error is SEM. From the text:
initial-rate kinetics by RP-HPLC, Michaelis-Menten fit on E. coli transketolase (TK), 6M variant scaffold

B1: E. coli transketolase (TK), 6M variant scaffold (Escherichia coli K-12; A282P/D469T/G506A/H100L/H192P/I365L/S385F) (protein)
chain: MSSRKELANAIRALSMDAVQKAKSGHPGAPMGMADIAEVLWRDFLKHNPQNPSWADRDRFVLSNGHGSMLIYSLLHLTGYDLPMEELKNFRQLHSKTPGLPEVGYTAGVETTTGPLGQGIANAVGMAIAEKTLAAQFNRPGHDIVDHYTYAFMGDGCMMEGISHEVCSLAGTLKLGKLIAFYDDNGISIDGPVEGWFTDDTAMRFEAYGWHVIRDIDGHDAASIKRAVEEARAVTDKPSLLMCKTIIGFGSPNKAGTHDSHGAPLGDAEIALTREQLGWKYPPFEIPSEIYAQWDAKEAGQAKESAWNEKFAAYAKAYPQEAAEFTRRMKGEMPSDFDAKAKEFIAKLQANPAKIASRKASQNALEAFGPLLPEFLGGSADLAPFNLTLWSGSKAINEDAAGNYIHYGVREFGMTAIANGISLHGGFLPYTSTFLMFVEYARNAVRMAALMKQRQVMVYTHDSIGLGETGPTHQPVEQVASLRVTPNMSTWRPCDQVESAVAWKYAVERQDGPTALILSRQNLAQQERTEEQLANIARGGYVLKDCAGQPELIFIATGSEVELAVAAYEKLTAEGVKARVVSMPSTDAFDKQDAAYRESVLPKAVTARVAVEAGIADYWYKYVGLNGAIVGMTTFGESAPAELLFEEFGFTVDNVVAKAKELL
notes: full-length, C-terminal His6 tag, expressed in E. coli from lab plasmid (pQR791 / pQR729), Ni-NTA purified; holo-TK with ThDP and Mg2+; non-natural residue by amber suppression in TK-5C
What is called Vmax is the rate approached at saturating substrate. What is called kcat is the maximal rate divided by the concentration of active sites. Consider B1, for which the Km is reported as 82 (11) mM, the Vmax turned out to be 3500 µM/min and the kcat was found to be 43 s⁻¹.
